Results: the DeepSol protein solubility set

Assay: soluble on expression in E. coli; label from the status in PepcDB or PDB records

Sequence	soluble on expression in E. coli
MSLTGANDSNYDPFAGLSFRVGVAENKNTTFRNKMEDVHTYIANFAERVDWGYFAIFDGHAGKDTARWCGNNLHTLLEEEIDRNSDEGSPPPTPITGKDDLREDLYKCFVKADELIEKSGQGKSGCTAAVAVLRWESDNEEPVSHTKSQDGGKFDFKPTKNHKRLLYTSNVGDLRIVLCRAGQAYRLSYDHKATDTHEINRIEDNGGLVLKNRVNGVLAVTRSLGDTYMKLLVIGVPFTTATEITADDEFIIIACDGLWDVVSDKHACKLAAESFKQGYSPLQVAKKLCQFAIELSTTDNVTVMVVQLDNDVFSEGHHHHHH	soluble
MSLTGGLFGAKPAGSTTGGLFGANTSTQQPAATQGSGLFGAKPTGTGLFGGQTQGSTTSGASAGGLFGKSANPAPGGAGLFGNTAQSNSVSSNTGGLFGSKPAATGGLFGGQPSAPLSTFGQNPATTSLQTPGTGSLFGAKPVSTIAPNTASQMQQQTGISTTNPYGTNELFTRITIPESITAPSQPRFTKVNTDTKATSLNTAYKLNPKPLFSKGSLPSASIAHATPSIDKAPQNTDKSDNETTLVKFGSSLFNPETDEALITADELLFNPDRKSFKTLLINKKKVNEALLNEKSTSPDKDIKRITFNEKSLLKDEDSVRSSIFDNVLETPTNTENKLSEASSVDHDFNERQEVSRPDLKGDLMPNGISKLPGVKGSDFTQMENGYYISPSLDTLASMSLFQLSSVTNFVVGHKDHGYIEFMEPVNLTDIPLTLICGGIIEFRPRACIVKSGNEAGFHGKGFNVRARIVCYKCFPLDKSTRKPVTNPDHALVKNHIKKFKSMPNCKFESYDPKTGTYVFAVDNAEGHHHHHH	soluble
MSLTIVAMNDVVKSFTGDIILEKVSLQLEEGERVGLIGRNGEGKSTILKILKGTEGVDSGIVTSKKGAKIGLLEQLSTVDPNIIVEQYLRTSFGELEELEKELRALEGEMATNSSEKLMNRYGDKMALFGELGGYEMDANLNKVVNGLGIGSLLSQRWGDLSGGEKTKVALAHLLLQKTDLLLLDEPTNHLDLMAVEWLTAFLQHYSGTVLVVSHDRYFLDEVVEKMVELENRELIVYHTNFSGYLKEREERLLREFQDYKDQQKKIKKMQQAIKRLRQWAMQANPPNDAMFRRAKNMERALERMEKVKRPVLTQKQMQLQFDEAGRSGQEVVVMENLSKSFSEKAIVQDVSLQIRQGERVAIIGENGAGKSTLLKIMEGKVVPDVGMIKVGASVKIASLSQQMEELNEKLTVLDAFRDKVAVTEGEARQMLAGFMFYGEMVFRKVGNISGGERMRLRLAQFINMPVNTLILDEPTNHLDIASREILEEAIRAFSGTIITVSHDRYFIDQLCSKVIWLENKQLTVYEGNYSYATSKREGHHHHHH	not soluble
MSLTKFVSAPLICGLALLGALSAAHAQTGIPALPPIAQPLPVPAPAPVTPPAPTVPVPQEPAPVPQPPMPQPSVPQTPAPQKPVTPRPAPAPSRAPLLIQARANVPALVAGKKTTVPVLKTLTIPAERAAQLRQRGEVSASLQADLDTFLKSLAAPRDARFEQQDDGQWAVVQPNGLKVDAQATRAAVAKVLRDPRGVSANVVVTGQVAPQRTLDFFASRGITTFLATGFTSYYGSSPERVKNIHVGAQNFKDRLFEGDVFSFNKFIGPVSERNGYVPGLVIAGDQTASGVGGGICQVSTTVFRTLYGAGLGIVQRQNHSYQVFYYDPQGLDATIYQPQLDLKFANTTGGPIWFQTEWDDQEATLTITAFGQARDYQVQVDAPKTLKTVAPPKDRLIPDASLPAGQRKQVDWAAPGATIEVTRRFTRGGKTFKQDTLRSVYRPWPNIFRVGTKKEGGSHHHHHH	soluble
MSLTKPFDVTLTREIIKIESVYAKMIENENILYLRVTNFDKNVVDVASKELKKYPNVKGVILDLRNNPGGLLNQAIGLVNLFVDKGVIVSQKGRIASENQEYKADPKNKISNASLVVLVNGGSASASEIVSGALQDLKRGVIVGENTFGKGSVQQIIPINKTEALRLTIARYYLPSGRTIQAVGVKPDIEVFPGKVNTQEDGFSIKESDLKQHLESELEKIDKNKKEDKQENKDNKNLISQKQINDDAQLKSAIDTIKILNIKQGEGHHHHHH	soluble
MSLTKTLIVNAHPDFRNAAHYSVQLEQAFLQLFQTRFPNDTVDVLNLYDTVIPQATVPELLGIWEKQAQHVNLSIEEQRLFAINQQLLQQFKAHHRIVIAMPLHNFNVPARLKDYIDNILVARETFRYTENGSVGLMTDNYRVMLLQASGSIYTRNDRYTPMEFSRLYLDKMFTEIMGFDRFEIVRAQGLQTNGVAVSQALKQAKMDLKAAFERFYDEGHHHHHH	soluble
MSLTKVSAFFSTCKAGVFLGWDRNIDTSIAYTDGYSNRLDIISYDLCNWNGNNDSSSISWDSASTIRDLQKPNIPLIKQYKGPYAHLIKNVIISAHMPCPTGGTSNGSISPQDFATLANTKIQDINSSSPWFLQNYKAIVSKVGDGLEYYGHVGTVYFRPFHEVNGNWFWWGDKDVSQYKQLWINLHDYLVSKNSGCRGLTWLKFCYAPNSGKNAALYYPGDDYVDMVGMDAYSDNPSTDTYVKRAYAELTGGTYNGVTYPGIDKPFGFPELGPNVGGDYVDNKNRLIKKFDYKRWSDAIKLNYPKASYFIIWNGGYEPRNNDNGTSLFNMSYEGHHHHHH	soluble
MSLTLEDIARKLNISKNAVSLALANKPGVSEKTRQLVFQTAKELGYKFKEKEEQKGTIALIMTKNIIEDPYFFSAIVYSVENEIRKEGYDFSLYCISSEDEWNIEEILTSSSFEGIIIVSAISENVIKKIEEKKIPTVVIDNLVDSTCIDTVNTDNYRSTKAAIEYLIKQGFKHIGFIGDVNHAISYRERWEGFMAAHEEFDIEIDKKVCKIEGFKDFSKNPEPEIQAFLKSLEKMPQAFFCVSDLSTLLTASVLKEMGFQIPKDVSIVGFDDIELVKHFKPALSMIHIDRNYYGQRAVKQLLERIKCPNKPVEDVRIFCRLNIRKSIRAEGHHHHHH	not soluble
MSLTMPVNTIMGLFAKSPIKPLQRHVVCVNECCSHLINFFEVCNKGDWEKAGEIRAQISHLEKEADVLKREIRLKLPRGLFMPVDRSDMLELLTQQDKLANLAKDIAGRVYGRQLVIPEPLQENFIAYVRRCLDAANQAQNVINELDELLETGFKGREVTLVAEMIHQLDVIEDDTDSMQIRLRQQLMAIESKMNPIDVMFLYKILEWVGGIADQAQRVGARLELMLSRSEGHHHHHH	soluble
MSLTNIEEFMPEKLAKAIANPLFPELDSLLRSGRHVASEDLDNHALLCEFEHELGLFYQRYNAELVKAPEGFFYLRPRSTSFIARSVLAEIDMLVGKVLCFLYLSPERLAHEGIFTNQELFDELLVLADEQKLMKLVTNRASGSDLDKEKLFDKVRTSLRRLKRLGMIIPVGEQGKFRISEAVFRFGADVRTSDDMKEAQLRLIRDGEAVVVHQEEASQSSLDLDADSNEKPAEEQHELELEGDLLEHHHHHH	soluble
MSLTNKELKKNLEDCVNCRLCYKVCPMMNTFGESPKNILRDIDKNKISYDEIAYSCMLCNACTEACPKDINLKEMFQNLRIKSYRENLKNTSKKFNLKVVQNHQKGSFSKFLTSKNNHKKIKRVFIPGCSLSGYNNEIIFKIKDYLIENLGKVEILLKCCGKPSKDIGNLELFESNLNDIENNLKIKEVDEIIVACENCYKTFGSAFKDIKVITLWEVINEFGVPKELKNKYSDLKEEFALHDPCPIKKEEQIHEAVRSILKDLGIKIVEFEKNRSKTECCGCGGMVGVTNKELWLSQKNKRANSTECENIVSYCESCVNTFKSSDKNALHILDFIFNEDVINGKAKSQKNISTINQWINRIKLANKVGKEGHHHHHH	not soluble
MSLTNKKNLRVVALAPTGRYFASIISSLEILETAAEFAEFQGFMTHVVTPNNRPLIGRGGISVQPTAQWQSFDFTNILIIGSIGDPLESLDNIDPALFDWIRELHLKGSKIVAIDTGIFVVAKAGLLQQNKAVMHSYFAHLFGELFPEIMLMTEQKALIDGNVYLSSGPYSHSSVMLEIVEEYFGKHTRNLGNQFLSTIESSGNSHSYCDVFRYMQHRDELILKIQKWILTTDLDIVSISDLANEACLSERQLKRRFKEATSISPLKFIQLGRLSFAKELLRSTKLSIDEVASRSGYVDTQFFRQIFKRENDCSPLEYRKRNQVKAEGHHHHHH	soluble
MSLTNLTVHTLEKDDIDSIIEIENLCFPTPWTKESMEGELRNKFAKYVVIKNNNLVVGYGGLWLIIDEGHITNIAVHPEFRGMGIGNKILEELIKLCEKRNIPSMTLEVRISNTIAQNLYKKFGFKEAGVRKKYYGDNDEDALIMWRNEGHHHHHH	soluble
